Measured values reported in the nanobody polyreactivity screen of Harvey et al. (2022).

Assay: yeast display, Sf9 membrane polyspecificity reagent, FACS + sequencing; frameworks hold sequencing errors
Summary of the method: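 Synthetic nanobody libraries on Saccharomyces cerevisiae BJ5465 were galactose-induced for 36–48 hours, stained 1 hour at 4 °C with 10% biotinylated, detergent-solubilized Sf9 membrane reagent and enriched on streptavidin microbeads. FACS then separated cells into low and high (top ~1%) gates by anti-HA (expression) and streptavidin (reagent binding) fluorescence. Genes were colony-PCR amplified, MiSeq 2 × 250 sequenced and CDR-length filtered. A clone's polyreactivity label is that of its gate of origin.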

Sequence	polyreactivity (PSR sort gate)
QVQLVESGGGLVQAGGSLRLSCAASGRIFHFYAMGWYRQAPGKERELVAAITSRTGNTYYADSVKGRYTISRDNAKNTVYLQMNSLKPEDTAVYYCAAKLVNALLHYRNWNHNNYWGQGTQVNVSS	low polyreactivity
QFQLVESGGGLDQAGGSLRLSCAASGFTFQYYAMGWYRQAPGKERELVAAITRGDSTNYADSVKGRFTISRDNAKNTVYLQMNSLKPEDTAVYYCAAGSAPSYWGGWYYERDYWGQGTQVTVSS	low polyreactivity
QVQLVESGGGLVQAGGSLRLSCAASGFIFRANAMGLYREAPGKERELVATISRSGGSTSYADSVKGRFTISRDNAKNTVYLQMNSLKPEDTAVYYCNKRTPYLRPIRDYWGQGTQVTVSS	high polyreactivity
QVHLVESGGGLVQAGGSLRLSCAASGRIFSRNVMGWYRQAPGKERELVAAISSSGSTYADSVKGRFTISRDNAKNTVYLQMNSLKPEDTAVYYCAAVIYLWGQGTQVTVSS	high polyreactivity
QVQLVESGGGLVQAGGSLRLSCAASGYTFYQYAMGWYRQAPGKESELVADISRSGVSTYYADSVKGRFTISRDNAKNTVYLQMNSLKPEDTAVYYCAARRPFYRQLDYWGQGTQVTVSS	high polyreactivity
QVQLVESGGGLVQAGGSLRLSCAASGRTFNWYAMGWYRQAPGKERELVAAISYSGGGTYYADSVKGRFTISRDTAKNTVYLQMNSLKPEDTAVYYCAAETYYAPYDYWGQGTQVTVSS	high polyreactivity
QVQLGESGGGLVQAGGSLRLSCAASGFIFCYYAMGWYRQAPVKERELVAAITSGGRTYYSESVKGRFTISLDNAKNTFYLQMNSMKPEDTSVYYCNVVLRSVVSGDYWGQGTQVTVSS	high polyreactivity
QVQLVESGGGLVQAGGSLRLSCAASGSRFSHYSMGWYRQAPGKERDLVATITGTGVRTSYADSVKGRFTISRDNAKNTVYLQMNSLKAEDTAVYYCAADGDYDPNLYGYWGQGTQVTVSS	low polyreactivity
QVQLVESGGGLVQAGGSLRLSCAASGRIFFTYAMGWSRQAPGKERELVAAISWSGGGTYYADSVKGRFTISRDNAKNTVYLQMNSLKPEDTAVYYCAADNTILFDYWGQGTQVTVSS	low polyreactivity
QVQLQESGGGLVQAGGSLRLSCASSGSISGPHVMGWYRQAPGKEREFVAAINVGANTYYADNVKGRFTISRDNAKNTVYLQMNSLKPEDTAVYYCAAVYYGDIGHEYWGQGTQVTVSC	low polyreactivity
QVQLVESRGGLVQAGGSLRLSSAASGSTYGVNPMGWYRQAPGKERELVAAISVSGGRTYYADSVKGRFTISRDNAKNTVDLQMNSLKPEDTAVYYCNADGLYAYVWYDYWGQGTQVSVSS	low polyreactivity
QVQLVESGGGLVQAGGSLRLSCAASGFTFRGYAMGWYRQAPGKERELVASITYRGGSTYYADSVKGRFTISRDNAKNTVYLQMNSLKPEDTADYYCNAGFGGRRRQDAFIGTSIYDYWGQGTQVTVSS	low polyreactivity
QVQLVESGGGLVQAGGSLRLSCAASGGILRQNTMGWYRQAPGKERELVAAISSSGGRTYYADSVKGRFTISRDNAKNTVYLQMNSLKPEDTAVYYCNVPAKRYPYYIRQSTVYPGNYWGQGTQVTVSS	high polyreactivity
QVQLVESGGGLVQAGGSLRLSFAASGSIFYYYVMGWYRQAPGKERELVASIRAGGDNTYYADSVKGRFTISRDSAKNTVYLQMNRLKPEDSEVYYCAKSRGRRRLYPHRYGHDYWGQGTQVTVSS	low polyreactivity
QVQLVESGGCLVKAGGSLRLSCAASGRIFLTNAIGWYRQAPGKESELVADISRAGSTYADSVKGRFTISRDNAKNTVYLQMNSLKPEDTAVYYCSADEYSPGDSRTRYDYWGQGTQVTVSS	low polyreactivity
QVQLVESGGGLVQAGGSLRLSCAASGFTLNGYAMGWYRQAPGKERELVAAISSSGGRTYYADSVKGRFTISRDNAKNTVYLQMNSLKPEDTAVYYCAAVVYYEDGYWGQGTQVTVSS	low polyreactivity
QVQLVESGRGLVQAGGSLRLSCAASGSIFISYAKGWYRQAPGKERELVAAITWSGDSTYYADSVKGRFTISRDNAKNTVYLQMNSLKPEDTAVYYCAKGQSRSLIYGRYGYWGQGTQVTVSS	low polyreactivity
QVQLVESGGGLVQAGGSLRLSCAASGFTLPANGMGWYRQAPGKERELVAAISFIAGSTYYADSVKGRFTISRDNAKNTVYLQMNSLKPEDTAVYYCATQFPPSTIYYYWGQGTQVTVSS	low polyreactivity
QVQLVESGGGLVQAGGSLRLSCAASGRIFGENALGWYRQAPGKEREFVAVISISDASTYYADSVKGRFTISRDNAKNTVYLQMISLKPEDTAVYYCAAELTDFLYVASDYWGQGTQVTVSS	low polyreactivity
QVQLVESAGGLVQAGGSLRLICAASVFTFYYYTMGWYRPAPGKERELVAGISGTGGSTYYADSVKGRFTISRDNAKNTVYLQMNSLKPEDTAVYYCAAGPWYWGQGTQVTVSS	low polyreactivity
QVQLVESGGGLVQAGGSLRLSCAASGSIFVYNAMGRYRQAPGKEREYVAAITYSGGSTYYADSVKGRFTISRDNAKNTVDLQMNSLKPEDTAVYYCAADYFQHVPKYGYWGQGTQVNVSS	low polyreactivity
QVQLVESGGGLVQAGGSLRLSCAASGRIFASYAMGWYRQAPGKERELVASISWGGGSRTYADSVKGRFTISRDNAKNTVYLQMNSLKPEDTAVYYCAADVHYTFGMDYWGQGTQVTVSS	high polyreactivity

Sequence	polyreactivity (PSR sort gate)
QVQLVESGGGLVQAGGSLRLSCAATGRIFRYYTMGWYRQAPGKERELVAAITSSSGSTYYADSVKGRFTISRDNAKNTVYLQMNSLKPEDTAVYYCNAVRYTTQTPNVDYGYWGQGTQVTVSS	high polyreactivity
QVQLGESGGGLVQAGGSLRLSCAASGNIFYRYAMGWYRQAPGKERELVAAITSDGSTYYADSVKGRFTISRDNAKNTVYLQMNSLKPEDTAVYYCAARRGTGSYSYRYPYGYDYWGQGTQVTVSS	low polyreactivity
QVQLVESGGGLVQAGGSLRLSCAASGITFQSNTMGCYRQAPGKERELVAAITWTGGRTYYADSVKGRFTISRDNAKNTVYLQMNSLKPEDTAVYYCNADGYAIGYNGKLDYWGQGTQVTVSS	high polyreactivity
QVQLVESGGGLVQAGGSLRLSCAASGRIFSRYVMGWYRQAPGKEREFFASITWSGSSTYYADSVKGRFTISRDNAKNTVYLQMNSLKPEDTAVYYCAALGLLSPSPCGTHISEYDSWGQGTQVTVSS	low polyreactivity
QVQHVESAGGLVQAGGSLRLICAASGSIFFHYGMGWYRQAPGKERELVADIRSGGSTYYADSVKGRFTSSRDNAKNTVYLQMNSLKPDDSAVYYCAAVLALFGVTHVDYWGQGTQVSVSS	low polyreactivity
QVQLVESGGRLVQAGASLRLSCAASGFTLHWYAMGWYRQAPGKERELVASITNTGRTYYADSVKGRFTISRDNAKNTVYLQINILKPEDTAVYYCAAGTQYSHYYVADYCRDYWGQGTQVTVSS	high polyreactivity
QVQLVESGGGLVQAGGSLRLSCAASGRTFFPYVMGWYRQAPGKERELVATITWGGVSTYYADSVKGRFTISRDNAKNTVYLQMNSLKPEDTAVYYCAARYYRWRTIPEYYYWGQGTQVTVSS	high polyreactivity
QVQLVESGGGLVQAGGSLRLSCAASGSIFADYAMGWYRQAPGKERELVAVISRRGGTTYYADSVKGRFTISRDNAKNTVYLQMNSLKTEDTAVYYCAARRSFNEYDYWGQGSQVTVSS	high polyreactivity
QVQLVESVGGLVQAGGSLRLSCAASGRTFSTKAMGWYRQAPGKERELVAVIPSSGVRTYYADSVKGRFTISRDNAKNTVYLQKNSLKPEDTAVYYCAKPYGYRLDYWGQGTQVTVSS	high polyreactivity
QVQLVESGGGLVQAGGRLRLSCAASGSIFDRYAMGWYRQAPGKERELVAAITRSGGSTYYADSVKGRFTISRDNAKNTVYLQMNSLKPEDTAVYYCNKVYPPRSIPYDFCGQGTQVTVSS	low polyreactivity
QVQLVESGGGLVQAGGSLRLSCAASGFTSRKNAMGWYRQAPGKERELVAAITQSSGRTYYADSVKGRFTISRDNAKNTVYLQMNSLKPEDTAVYYCAARRGGEDDYWGQGTQVTVSS	low polyreactivity
QVQHVESGGGLVQAGGSLRLSCAASGIIIKFYAMGWYRKAPVKERELVATITFSSGTTYYADSVKGRFTMSRDNAKTTVYFQMNSLKPEDTAVYYCAASTLPAWPYDGPAGPRYDYWGQGTQVTVSS	low polyreactivity
QVQHVESGGGLVQAGGSLRLSCAASGITFSYYAMGWYIQAPGKEREFVAAISWSGGSTYYADSVKGRFTISRDNAKNTVYLQMNSLKPEVTAVYYCAADRYPYGLDYWGQGTQVTVSS	high polyreactivity
QVQLVESGGGIVQAGGSLRLSSAASGRIFDGYTKGWYRHEPGKERQLVAAITYRSGRTYYADSVKGRFTISRDNAKNTVYLQMHSLKPDDTAVYYCAAPWYRGGNTESYYWGQGTQVTVSS	high polyreactivity
QVQLVESGGGLVQAGGSLRLSCAASGITFRFNAMGWYRQAPGKEREFVAAITYSGDSTYYADSVKGRFTISRDNAKNTVYLQKNSLKPEDTAVYYCAADYYAISRRIFYYWGQGTQVTVSS	low polyreactivity
QVQLVESGGGLVQAGGSLRLSCAASGFIFSSNTMGWYRQAPGKERELVADITSGARTNYADSVKGRFTISRDNAKNTVYLQMNSLKPEDTAVYYCAAYPHYIYFTWYPRYTYGYWGQGTQVTVSS	low polyreactivity
QVQLVESGRGLVQAGGSLRLSCAASGFTFLLNAMGWYRQAPGKERELVAAITYSGGSTYYADSVKGRFTISRDNAKNTVYLQMNSLKPEDTAVYYCAKTSVTISEYEYWGQGTQVTVSS	low polyreactivity
QVQLVESGGGLVQAGGSLRISCAASGSIFDPYAMGWYRQAPGKERELVAAITSGGSTYYADSVKGRFTISRDNAKNTVYLQMNSLIPEDTAVYYCAKDFDIYYSKYDYWGQGTQVTVSS	low polyreactivity
QVQLVESGGGLVQAGGSLRLSSAASGRLFSEYAMGWYRQAPGKERELVAAISRRGGRTYYADSVKGRFTISRDNAKNTVYVQMNSLIPEDTAVYYCAADHGDPGGYDYWGQGSQVTVSS	high polyreactivity
QVQLVESGGGLVQAGGSLRLSCAASGSTFTTHVMGWYRQAPGKERELVAAISWSSGSTYYADSVKGRFTISRDNEKNTVYLQMNSLKPEDTAVYYCDARLVIFYPYSRYYFWGQGTQVTVSS	high polyreactivity
QVQLVESGGGLVQAGGSLRLSCAASGSMFSHYTMGWYRQAPGQERELVAAITNGGITNYADAVKGRFTISRDNAKNTVYLQMNSLKPEDTAVYYCAADWWYGYSNYDYWGQGTQVTVSS	low polyreactivity
